Reference: article PMC9482650, “Quantitative fragmentomics allow affinity mapping of interactomes” (Nature Communications, 2022)

Legend:
Test in all cases: holdup assay
Set-up in all cases: key: below the threshold = too weak to quantify, mostly under pKd 3.1 to 4
Conditions in all cases: plain residues with an end cap or a label only (N-terminal biotin on a linker: ado-ado)
GRIP1_4, Q9Y3R0 = molecular target: T1, GRIP1_4, Q9Y3R0
T1 sequence (Q9Y3R0 467-571, limits assumed, looked up): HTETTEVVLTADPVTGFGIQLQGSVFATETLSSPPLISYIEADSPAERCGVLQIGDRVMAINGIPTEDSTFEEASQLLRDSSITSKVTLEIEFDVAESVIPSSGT

NOS1, P29475 = molecular target: NOS1, P29475
GRIP1_2, Q9Y3R0 = molecular target: T2, GRIP1_2, Q9Y3R0
T2 sequence (Q9Y3R0 145-248, limits assumed, looked up): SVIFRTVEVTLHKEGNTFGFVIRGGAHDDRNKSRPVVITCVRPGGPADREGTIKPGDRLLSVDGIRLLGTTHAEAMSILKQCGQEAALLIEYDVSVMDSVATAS

TJP1_3, Q07157 = molecular target: TJP1_3, Q07157
TJP2_1, Q9UDY2 = molecular target: TJP2_1, Q9UDY2
LAP2, Q96RT1 = molecular target: LAP2, Q96RT1
RHPN1, Q8TCX5 = molecular target: T3, RHPN1, Q8TCX5
T3 sequence (Q8TCX5 508-602, limits assumed, looked up): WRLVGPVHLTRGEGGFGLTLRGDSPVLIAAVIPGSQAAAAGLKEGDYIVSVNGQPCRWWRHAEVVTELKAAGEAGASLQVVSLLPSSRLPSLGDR

SYNJ2BP, P57105 = molecular target: T4, SYNJ2BP, P57105
T4 sequence (P57105 8-110, limits assumed, looked up): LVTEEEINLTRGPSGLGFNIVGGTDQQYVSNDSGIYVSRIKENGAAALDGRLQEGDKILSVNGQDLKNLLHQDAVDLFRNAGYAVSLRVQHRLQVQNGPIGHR

PTPN13_1, Q12923 = molecular target: T5, PTPN13_1, Q12923
T5 sequence (Q12923 1088-1188, limits assumed, looked up): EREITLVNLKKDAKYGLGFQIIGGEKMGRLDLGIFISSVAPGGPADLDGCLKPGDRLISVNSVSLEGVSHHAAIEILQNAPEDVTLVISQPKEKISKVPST

HTRA3, P83110 = molecular target: T6, HTRA3, P83110
T6 sequence (P83110 354-453, limits assumed, looked up): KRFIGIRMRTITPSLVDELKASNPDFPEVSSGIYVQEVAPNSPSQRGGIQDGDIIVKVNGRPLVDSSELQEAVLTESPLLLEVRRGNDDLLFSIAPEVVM

HTRA1, Q92743 = molecular target: HTRA1, Q92743
MPDZ_10, O75970 = molecular target: T7, MPDZ_10, O75970
T7 sequence (O75970 1624-1722, limits assumed, looked up): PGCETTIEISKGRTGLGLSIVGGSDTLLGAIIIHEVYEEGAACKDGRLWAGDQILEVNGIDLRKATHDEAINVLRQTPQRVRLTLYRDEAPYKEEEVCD

LIN7B, Q9HAP6 = molecular target: T8, LIN7B, Q9HAP6
T8 sequence (Q9HAP6 88-185, limits assumed, looked up): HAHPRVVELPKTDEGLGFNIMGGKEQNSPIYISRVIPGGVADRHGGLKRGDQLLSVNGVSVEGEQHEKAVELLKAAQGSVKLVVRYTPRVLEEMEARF

DLG3_1, Q92796 = molecular target: T9, DLG3_1, Q92796
T9 sequence (Q92796 125-227, limits assumed, looked up): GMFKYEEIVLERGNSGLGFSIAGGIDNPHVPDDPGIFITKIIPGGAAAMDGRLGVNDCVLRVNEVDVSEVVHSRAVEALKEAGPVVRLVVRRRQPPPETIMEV

Inadl_5, Q8NI35 = molecular target: Inadl_5, Q8NI35
DLG3_2, Q92796 = molecular target: T10, DLG3_2, Q92796
T10 sequence (Q92796 221-321, limits assumed, looked up): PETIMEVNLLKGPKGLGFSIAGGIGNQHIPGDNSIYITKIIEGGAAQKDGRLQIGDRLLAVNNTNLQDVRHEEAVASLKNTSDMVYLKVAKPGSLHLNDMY

PARD3B_1, Q8TEW8 = molecular target: T11, PARD3B_1, Q8TEW8
T11 sequence (Q8TEW8 196-299, limits assumed, looked up): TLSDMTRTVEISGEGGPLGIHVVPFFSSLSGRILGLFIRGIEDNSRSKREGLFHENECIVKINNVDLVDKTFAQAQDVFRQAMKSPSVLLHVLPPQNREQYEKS

DLG4_1, P78352 = molecular target: DLG4_1, P78352
IL16_1, Q14005 = molecular target: IL16_1, Q14005
DLG1_3, Q12959 = molecular target: DLG1_3, Q12959
DFNB31_1, Q9P202 = molecular target: T12, DFNB31_1, Q9P202
T12 sequence (Q9P202 135-233, limits assumed, looked up): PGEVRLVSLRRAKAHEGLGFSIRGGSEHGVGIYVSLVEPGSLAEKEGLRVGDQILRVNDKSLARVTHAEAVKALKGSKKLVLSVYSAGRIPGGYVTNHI

NHERF4_4, Q86UT5 = molecular target: NHERF4_4, Q86UT5
Inadl_9, Q8NI35 = molecular target: Inadl_9, Q8NI35
GORASP2, Q9H8Y8 = molecular target: GORASP2, Q9H8Y8
Inadl_10, Q8NI35 = molecular target: Inadl_10, Q8NI35
Chain of Inadl_10, Q8NI35 (Q8NI35 1673-1763): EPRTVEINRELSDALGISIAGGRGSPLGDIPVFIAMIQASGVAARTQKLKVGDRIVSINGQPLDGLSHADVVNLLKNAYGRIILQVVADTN

Chain of NOS1, P29475 (P29475 9-101): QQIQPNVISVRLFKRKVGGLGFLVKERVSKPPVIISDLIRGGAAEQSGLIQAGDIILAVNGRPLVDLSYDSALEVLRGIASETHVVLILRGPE
Chain of Inadl_5, Q8NI35 (Q8NI35 673-780): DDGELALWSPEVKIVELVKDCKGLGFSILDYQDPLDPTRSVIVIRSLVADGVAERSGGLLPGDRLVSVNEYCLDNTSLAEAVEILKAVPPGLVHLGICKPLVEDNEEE
Chain of DLG1_3, Q12959 (Q12959 457-571): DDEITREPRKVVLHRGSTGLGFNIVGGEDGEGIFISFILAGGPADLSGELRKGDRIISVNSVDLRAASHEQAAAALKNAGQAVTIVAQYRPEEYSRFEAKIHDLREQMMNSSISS
Chain of IL16_1, Q14005 (Q14005 210-306): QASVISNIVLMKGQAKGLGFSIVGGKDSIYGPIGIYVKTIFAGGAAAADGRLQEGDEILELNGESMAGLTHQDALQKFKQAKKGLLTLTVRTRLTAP
Chain of NHERF4_4, Q86UT5 (Q86UT5 464-550): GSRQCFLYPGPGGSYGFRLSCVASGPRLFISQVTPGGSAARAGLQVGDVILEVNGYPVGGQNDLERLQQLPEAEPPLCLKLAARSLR
Chain of TJP1_3, Q07157 (Q07157 416-512): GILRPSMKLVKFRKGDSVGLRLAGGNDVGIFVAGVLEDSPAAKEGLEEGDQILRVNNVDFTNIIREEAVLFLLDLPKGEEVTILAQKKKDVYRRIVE
Chain of Inadl_9, Q8NI35 (Q8NI35 1530-1615): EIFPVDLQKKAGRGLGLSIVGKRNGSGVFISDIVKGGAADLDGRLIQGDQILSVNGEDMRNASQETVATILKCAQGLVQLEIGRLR
Chain of DLG4_1, P78352 (P78352 62-152): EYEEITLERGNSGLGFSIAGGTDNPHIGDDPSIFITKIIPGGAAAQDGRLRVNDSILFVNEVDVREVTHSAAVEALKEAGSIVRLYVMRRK
Chain of TJP2_1, Q9UDY2 (Q9UDY2 24-128): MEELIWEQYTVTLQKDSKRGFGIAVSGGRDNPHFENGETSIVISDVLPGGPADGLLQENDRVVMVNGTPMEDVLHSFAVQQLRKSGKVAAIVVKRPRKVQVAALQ
Chain of LAP2, Q96RT1 (Q96RT1 other isoform, or with tags, fused parts or gaps): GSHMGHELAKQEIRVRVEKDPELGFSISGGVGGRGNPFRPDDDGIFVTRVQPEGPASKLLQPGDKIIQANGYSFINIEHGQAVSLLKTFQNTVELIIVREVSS
Chain of HTRA1, Q92743 (Q92743 360-477): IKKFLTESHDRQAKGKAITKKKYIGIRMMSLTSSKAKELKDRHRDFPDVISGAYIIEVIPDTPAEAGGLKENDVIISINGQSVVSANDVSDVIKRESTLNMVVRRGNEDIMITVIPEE

QKNRKAQEDL [CES3, Q6UWW8]
pKd (GRIP1_4, Q9Y3R0): below the threshold
pKd (NOS1, P29475): below the threshold
pKd (GRIP1_2, Q9Y3R0): below the threshold
pKd (TJP1_3, Q07157): below the threshold
pKd (TJP2_1, Q9UDY2): below the threshold
pKd (LAP2, Q96RT1): below the threshold
pKd (RHPN1, Q8TCX5): below the threshold
pKd (SYNJ2BP, P57105): below the threshold
pKd (PTPN13_1, Q12923): below the threshold
pKd (HTRA3, P83110): below the threshold
pKd (HTRA1, Q92743): below the threshold
pKd (MPDZ_10, O75970): below the threshold
pKd (LIN7B, Q9HAP6): 3.78
pKd (DLG3_1, Q92796): below the threshold
pKd (Inadl_5, Q8NI35): below the threshold
pKd (DLG3_2, Q92796): 4.21
pKd (PARD3B_1, Q8TEW8): below the threshold
pKd (DLG4_1, P78352): below the threshold
pKd (IL16_1, Q14005): below the threshold
pKd (DLG1_3, Q12959): below the threshold
pKd (DFNB31_1, Q9P202): below the threshold
pKd (NHERF4_4, Q86UT5): below the threshold
pKd (Inadl_9, Q8NI35): below the threshold
pKd (GORASP2, Q9H8Y8): below the threshold
pKd (Inadl_10, Q8NI35): below the threshold

LPAHHNATRL [SLC34A1, Q06495;Q06495-1]
pKd (GRIP1_4, Q9Y3R0): below the threshold
pKd (NOS1, P29475): 4.09
pKd (GRIP1_2, Q9Y3R0): below the threshold
pKd (TJP1_3, Q07157): below the threshold
pKd (LAP2, Q96RT1): below the threshold
pKd (SYNJ2BP, P57105): below the threshold
pKd (PTPN13_1, Q12923): below the threshold
pKd (HTRA3, P83110): below the threshold
pKd (MPDZ_10, O75970): below the threshold
pKd (LIN7B, Q9HAP6): below the threshold
pKd (DLG3_1, Q92796): below the threshold
pKd (Inadl_5, Q8NI35): below the threshold
pKd (DLG3_2, Q92796): below the threshold
pKd (PARD3B_1, Q8TEW8): 4.62
pKd (IL16_1, Q14005): below the threshold
pKd (DLG1_3, Q12959): below the threshold
pKd (NHERF4_4, Q86UT5): below the threshold
pKd (Inadl_9, Q8NI35): below the threshold
pKd (GORASP2, Q9H8Y8): below the threshold
pKd (Inadl_10, Q8NI35): below the threshold

YLEPVLSSEL [ATP2A2, P16615;P16615-3]
pKd (GRIP1_4, Q9Y3R0): below the threshold
pKd (NOS1, P29475): below the threshold
pKd (GRIP1_2, Q9Y3R0): below the threshold
pKd (TJP1_3, Q07157): below the threshold
pKd (TJP2_1, Q9UDY2): below the threshold
pKd (RHPN1, Q8TCX5): 4.24
pKd (SYNJ2BP, P57105): 4.24
pKd (PTPN13_1, Q12923): below the threshold
pKd (HTRA3, P83110): below the threshold
pKd (MPDZ_10, O75970): below the threshold
pKd (DLG3_1, Q92796): below the threshold
pKd (Inadl_5, Q8NI35): below the threshold
pKd (DLG3_2, Q92796): 4.18
pKd (PARD3B_1, Q8TEW8): 4.04
pKd (DLG4_1, P78352): below the threshold
pKd (IL16_1, Q14005): below the threshold
pKd (DLG1_3, Q12959): below the threshold
pKd (DFNB31_1, Q9P202): below the threshold
pKd (NHERF4_4, Q86UT5): below the threshold
pKd (Inadl_9, Q8NI35): below the threshold
pKd (GORASP2, Q9H8Y8): below the threshold
pKd (Inadl_10, Q8NI35): below the threshold
